Target: the molecule itself
Test: non-reducing SDS-PAGE with Western blot; purified GC1 or Trx1, untreated, reduced (10 mM DTT) or oxidized (100 μM diamide), excess reagent removed; 12% SDS-PAGE under non-reducing conditions, blots probed with anti-GC1 α and β or anti-Trx1

B1: oxidized Trx1 (oTrx1) (enzyme, human, UniProt P10599 1-105, looked up)
chain: MVKQIESKTAFQEALDAAGDKLVVVDFSATWCGPCKMIKPFFHSLSEKYSNVIFLEVDVDDCQDVASECEVKCMPTFQFFKKGQKVGEFSGANKEKLEATINELV
modifications: thiols oxidized with 100 μM diamide (the cysteine engaged in the homodimer is not identified)
notes: Thioredoxin 1, human; same protein as m2, oxidized; mostly a dimer on a non-reducing gel; also used here for the endogenous Trx1 of Jurkat T cells in two functional rows; also called oxidized thioredoxin; source: bought: Fitzgerald industries (30R-2985); treated with 100 μM diamide on ice for 30 min, excess removed
B1: binds.

B2: oxidized GC1 (oGC1) (complex, human)
chain 1: MFCTKLKDLKITGECPFSLLAPGQVPNESSEEAAGSSESCKATVPICQDIPEKNIQESLPQRKTSRSRVYLHTLAESICKLIFPEFERLNVALQRTLAKHKIKESRKSLEREDFEKTIAEQAVAAGVPVEVIKESLGEEVFKICYEEDENILGVVGGTLKDFLNSFSTLLKQSSHCQEAGKRGRLEDASILCLDKEDDFLHVYYFFPKRTTSLILPGIIKAAAHVLYETEVEVSLMPPCFHNDCSEFVNQPYLLYSVHMKSTKPSLSPSKPQSSLVIPTSLFCKTFPFHFMFDKDMTILQFGNGIRRLMNRRDFQGKPNFEEYFEILTPKINQTFSGIMTMLNMQFVVRVRRWDNSVKKSSRVMDLKGQMIYIVESSAILFLGSPCVDRLEDFTGRGLYLSDIPIHNALRDVVLIGEQARAQDGLKKRLGKLKATLEQAHQALEEEKKKTVDLLCSIFPCEVAQQLWQGQVVQAKKFSNVTMLFSDIVGFTAICSQCSPLQVITMLNALYTRFDQQCGELDVYKVETIGDAYCVAGGLHKESDTHAVQIALMALKMMELSDEVMSPHGEPIKMRIGLHSGSVFAGVVGVKMPRYCLFGNNVTLANKFESCSVPRKINVSPTTYRLLKDCPGFVFTPRSREELPPNFPSEIPGICHFLDAYQQGTNSKPCFQKKDVEDGNANFLGKASGID
chain 2: MYGFVNHALELLVIRNYGPEVWEDIKKEAQLDEEGQFLVRIIYDDSKTYDLVAAASKVLNLNAGEILQMFGKMFFVFCQESGYDTILRVLGSNVREFLQNLDALHDHLATIYPGMRAPSFRCTDAEKGKGLILHYYSEREGLQDIVIGIIKTVAQQIHGTEIDMKVIQQRNEECDHTQFLIEEKESKEEDFYEDLDRFEENGTQESRISPYTFCKAFPFHIIFDRDLVVTQCGNAIYRVLPQLQPGNCSLLSVFSLVRPHIDISFHGILSHINTVFVLRSKEGLLDVEKLECEDELTGTEISCLRLKGQMIYLPEADSILFLCSPSVMNLDDLTRRGLYLSDIPLHDATRDLVLLGEQFREEYKLTQELEILTDRLQLTLRALEDEKKKTDTLLYSVLPPSVANELRHKRPVPAKRYDNVTILFSGIVGFNAFCSKHASGEGAMKIVNLLNDLYTRFDTLTDSRKNPFVYKVETVGDKYMTVSGLPEPCIHHARSICHLALDMMEIAGQVQVDGESVQITIGIHTGEVVTGVIGQRMPRYCLFGNTVNLTSRTETTGEKGKINVSEYTYRCLMSPENSDPQFHLEHRGPVSMKGKKEPMQVWFLSRKNTGTEETKQDDD
modifications: thiols oxidized with 100 μM diamide (cysteines not mapped) | thiols oxidized with 100 μM diamide (cysteines not mapped)
notes: alpha subunit of soluble guanylyl cyclase GC1, human; beta subunit of soluble guanylyl cyclase GC1, human; same protein as m1, oxidized; runs as high molecular weight multimers on a non-reducing gel; also called multimeric oxidized GC1; source: bought: Enzo life sciences (ALX-201-177-C010); treated with 100 μM diamide on ice for 30 min, excess removed
B2: binds.

B3: purified recombinant human soluble guanylyl cyclase (GC1), untreated (complex)
chain 1: MFCTKLKDLKITGECPFSLLAPGQVPNESSEEAAGSSESCKATVPICQDIPEKNIQESLPQRKTSRSRVYLHTLAESICKLIFPEFERLNVALQRTLAKHKIKESRKSLEREDFEKTIAEQAVAAGVPVEVIKESLGEEVFKICYEEDENILGVVGGTLKDFLNSFSTLLKQSSHCQEAGKRGRLEDASILCLDKEDDFLHVYYFFPKRTTSLILPGIIKAAAHVLYETEVEVSLMPPCFHNDCSEFVNQPYLLYSVHMKSTKPSLSPSKPQSSLVIPTSLFCKTFPFHFMFDKDMTILQFGNGIRRLMNRRDFQGKPNFEEYFEILTPKINQTFSGIMTMLNMQFVVRVRRWDNSVKKSSRVMDLKGQMIYIVESSAILFLGSPCVDRLEDFTGRGLYLSDIPIHNALRDVVLIGEQARAQDGLKKRLGKLKATLEQAHQALEEEKKKTVDLLCSIFPCEVAQQLWQGQVVQAKKFSNVTMLFSDIVGFTAICSQCSPLQVITMLNALYTRFDQQCGELDVYKVETIGDAYCVAGGLHKESDTHAVQIALMALKMMELSDEVMSPHGEPIKMRIGLHSGSVFAGVVGVKMPRYCLFGNNVTLANKFESCSVPRKINVSPTTYRLLKDCPGFVFTPRSREELPPNFPSEIPGICHFLDAYQQGTNSKPCFQKKDVEDGNANFLGKASGID
chain 2: MYGFVNHALELLVIRNYGPEVWEDIKKEAQLDEEGQFLVRIIYDDSKTYDLVAAASKVLNLNAGEILQMFGKMFFVFCQESGYDTILRVLGSNVREFLQNLDALHDHLATIYPGMRAPSFRCTDAEKGKGLILHYYSEREGLQDIVIGIIKTVAQQIHGTEIDMKVIQQRNEECDHTQFLIEEKESKEEDFYEDLDRFEENGTQESRISPYTFCKAFPFHIIFDRDLVVTQCGNAIYRVLPQLQPGNCSLLSVFSLVRPHIDISFHGILSHINTVFVLRSKEGLLDVEKLECEDELTGTEISCLRLKGQMIYLPEADSILFLCSPSVMNLDDLTRRGLYLSDIPLHDATRDLVLLGEQFREEYKLTQELEILTDRLQLTLRALEDEKKKTDTLLYSVLPPSVANELRHKRPVPAKRYDNVTILFSGIVGFNAFCSKHASGEGAMKIVNLLNDLYTRFDTLTDSRKNPFVYKVETVGDKYMTVSGLPEPCIHHARSICHLALDMMEIAGQVQVDGESVQITIGIHTGEVVTGVIGQRMPRYCLFGNTVNLTSRTETTGEKGKINVSEYTYRCLMSPENSDPQFHLEHRGPVSMKGKKEPMQVWFLSRKNTGTEETKQDDD
notes: alpha subunit of soluble guanylyl cyclase GC1, human; beta subunit of soluble guanylyl cyclase GC1, human; alpha/beta heterodimer as bought; also called untreated GC1; source: bought: Enzo life sciences (ALX-201-177-C010), purified recombinant
B3: binds.

B4: recombinant human Thioredoxin 1 (Trx1), untreated (enzyme, UniProt P10599 1-105, looked up)
chain: MVKQIESKTAFQEALDAAGDKLVVVDFSATWCGPCKMIKPFFHSLSEKYSNVIFLEVDVDDCQDVASECEVKCMPTFQFFKKGQKVGEFSGANKEKLEATINELV
notes: Thioredoxin 1, human; also called untreated Trx1; source: bought: Fitzgerald industries (30R-2985)
B4: binds.
